According to patent EP3727588B1 (UNIVERSITA' DEGLI STUDI DI MILANO, dated 2019):

B1: inPEP2 (peptide)
peptide: YGRKKRRQRRRGGSGLPPEQEPRL
B2: inPEP3 (peptide)
peptide: YGRKKRRQRRRGGSGQPPEQEPRG
B3: PEP3 (peptide)
peptide: YGRKKRRQRRRGGSGQPPRQRPRG
B4: PEP2 (peptide)
peptide: YGRKKRRQRRRGGSGLPPRQRPRL

Experiments:
[1] = target: AP2 clathrin adaptor complex (in COS7 cells); assay: cell-based or functional assay
[2] = target: T1, α-adaptin subunit of AP2 (rat) (rat, UniProt P58197); assay: co-IP with anti-ADAM10; rat primary hippocampal neurons, 1 µM, 30 min; competitor ADAM10 (Fig. 1D)
T1 construct: Detected by Western blot as a read-out of the whole AP2 complex
T1 sequence (P58197 whole entry): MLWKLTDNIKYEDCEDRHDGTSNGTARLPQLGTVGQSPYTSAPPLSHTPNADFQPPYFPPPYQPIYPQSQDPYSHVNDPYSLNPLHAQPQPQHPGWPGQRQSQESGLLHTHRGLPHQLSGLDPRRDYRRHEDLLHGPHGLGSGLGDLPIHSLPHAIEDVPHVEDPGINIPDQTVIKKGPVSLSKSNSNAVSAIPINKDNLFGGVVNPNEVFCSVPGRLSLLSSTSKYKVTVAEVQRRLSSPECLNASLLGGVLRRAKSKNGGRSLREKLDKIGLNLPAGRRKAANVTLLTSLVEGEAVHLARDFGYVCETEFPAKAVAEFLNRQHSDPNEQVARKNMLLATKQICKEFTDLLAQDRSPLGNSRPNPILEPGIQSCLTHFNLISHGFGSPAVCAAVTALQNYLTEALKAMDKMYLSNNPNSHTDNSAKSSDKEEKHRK

[3] = target: T1, α-adaptin subunit of AP2 (rat); assay: co-IP with anti-ADAM10, α-adaptin blot; rat acute hippocampal slices, 10 µM, 30 min; competitor ADAM10 (Fig. 1B)

Binder	internalization index of TacADAM10-RAR (fluorescence-based antibody uptake, COS7 cells, 1 µM, 30 min) [1] [%]	PEP/inPEP ratio of α-adaptin co-immunoprecipitated with ADAM10 (OD) [2] [%]	PEP/inPEP ratio of α-adaptin co-immunoprecipitated with ADAM10 (OD) [3] [%]
B1	-1.84		
B2	1.3		
B3	-12.8	10.8	37.4
B4	-10.9	33.9	41.6
